According to publication PMC2892007, “The Terminal Immunoglobulin-Like Repeats of LigA and LigB of Leptospira Enhance Their Binding to Gelatin Binding Domain of Fibronectin and Host Cells” (PLoS ONE, 2010):

B1: LigBCen7'-12 (domain or fragment)
chain: AEITNTSGSKGITNTLTPGSSEISAALGSIKSSKVILKVTPAQLISIAVTPINPSVAKGLIRQFKATGTYTDHSVQDVTALATWSSSNPRKAMVNNVTGSVTTVATGNTNIKATIDSISGSSVLNVTPALLTSIEITPTINSITHGLTKQFKATGIFSDKSTQNLTQLVTWISSDPSKIEIENTSGKKGIATASKLGSSNIKAVYKFIQSSPIPITVTDLKLKSITISPSSSSIAKGLTQQFKAIGTFIDGSEQEITNLVTWYSSKSDVAPINNAANEKGLATALSIGSSDIYAIYNSISSNKINFNVSAATLDSIKINPVNNNIAKGLTQQYTALGVYSDSTIQDISDSVTWSSSNSSSISISNSTETKGKATALQIGNSKITATYNSISENIDITVSAATLSSISISPINTNINTTVSKQFFAVGTYSDGTKADLTSSVTWSSSNQSQAKVSNASETKGLVTGIASGNPTIIATYGSVSGNTILTVNKTDTI
modifications: biotin (in the ELISA)
B2: LigAVar10 (domain or fragment)
chain: LSVTAAELIEIVLDPTSSHKAKGLTENFKATGVFTDNSTKDITDQVTWKSSKTAYAKISNATGSKRVVNAISKGTSHISATLGSISSANATFQVTPAKVV
modifications: biotin (in the ELISA)
B3: LigAVar11 (domain or fragment)
chain: FQVTPAKVVSIEVIPNNISFAKGNSYQFKATGIYTDHSEADITEQVTWSSSNPKIASVENTFGSAGLVNTTNIGSTNITAKLSDTVSGASVLNVTPALLRY
modifications: biotin (in the ELISA)
B4: LigAVar13 (domain or fragment)
chain: ITISLSSISKTKGSTHQFKATGKFENGAEIDLTELVTWSSSNPTVVSISNVDDERGLATALSVGSSKISVDYNSISSSIDFEVTPEILASIKTEP
modifications: biotin (in the ELISA)
B5: Histidine-tagged LigBCen2R (domain or fragment)
chain: TATYNSISENIDITVSAATLSSISISPINTNINATVSKQFFAVGTYSDGTKADLTSSVTWSSSNKSQAKVSNASKTKGLVTGIASGNSIITATYGSVSGNTILTVNKTDTI
B6: LigAVar7'-8 (domain or fragment)
chain: LTVSNTNAKRGLGSTLKQGTVKVTASMGGIEDSVDFTVTQATLTSIEVSPTRASIAKGMTQKFTATGIFTDHSKKNITEQVTWKSSSKALSMLNAPGEEGTGKAIAVGKHYYYCNLRKTFRENRYYRYSRNSYFN
modifications: biotin (in the ELISA)

Legend:
Details in all cases: both partners purified
[1] = biological target: T1, Gelatin-binding domain of human plasma fibronectin (human); test: ELISA
T1 construct: also called GBD; source: bought: Sigma-Aldrich

[2] = biological target: T1, Gelatin-binding domain of human plasma …; test: SEC-MALS; mixtures of Lig protein and GBD on Superose 6, 20 mM HEPES, 150 mM NaCl, pH 7.5
[3] = biological target: T1, Gelatin-binding domain of human plasma …; test: ITC; GBD in the cell (1 ml), Lig protein in the syringe (250 µl), 25 injections of 10 µl, 25°C, Tris buffer with 100 µM CaCl2; independent binding model
[4] = biological target: T1, Gelatin-binding domain of human plasma …; test: SPR
[5] = biological target: T1, Gelatin-binding domain of human plasma …; test: ITC; GBD in the cell (1 ml), Lig protein in the syringe (250 µl), 25 injections of 10 µl, 25°C, Tris buffer with 100 µM CaCl2; independent binding model; remark: listed apart in the source

Binder	Kd [1]	stoichiometry N [2]	Kd [3]	dH [3]	stoichiometry N [3]	koff [4]	kon [4]	Kd [5]	dH [5]	stoichiometry N [5]
B1	49 ± 7 nM	3.03 GBD: Lig	49 ± 2 nM	-95.7 ± 3.85 kcal/mol	0.33 ± 0.02 Lig: GBD					
B2						0.00506 s⁻¹	1190 M⁻¹ s⁻¹			
B3						0.00599 s⁻¹	1190 M⁻¹ s⁻¹			
B4						0.0053 s⁻¹	510 M⁻¹ s⁻¹			
B5						0.00923 s⁻¹	4830 M⁻¹ s⁻¹	1880 ± 90 nM	-29.2 ± 3.58 kcal/mol	0.995 ± 0.01
B6		0.95 GBD: Lig	6750 ± 110 nM	-28.6 ± 5.14 kcal/mol	1.01 ± 0.04 Lig: GBD	0.00501 s⁻¹	750 M⁻¹ s⁻¹			
